# Patent publication US20170369590A1 (Genmab, published 2017)
# B1: HuMab 005 (antibody, V domains shown)
# VH: EVQLVQSGAEVKKPGESLKISCKASGYSFHFYWIGWVRQMPGKGLEWMGSIYPGDSDTRYRPSFQGQVTISADKSISTAYLQWTSLKASDTAIYYCARQRGDYYYFYGMDVWGQGTTVTVSS
# VL: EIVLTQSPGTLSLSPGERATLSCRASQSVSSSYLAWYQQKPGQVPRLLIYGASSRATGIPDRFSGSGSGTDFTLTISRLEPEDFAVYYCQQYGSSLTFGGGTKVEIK
# notes: also called PC1014-005; TH1014-005
# Tests used:
# [1] = molecular target: T1, human epidermal growth factor receptor 2 (HER2), membrane-bound on cells (human, UniProt P04626 23-1255); assay: cell-based or functional assay
# [2] = molecular target: T2, HER2ECDHis (human, UniProt P04626 23-653, biotinylated in the cross-block ELISA (sites not given)); assay: ELISA; competitor Pert
# T2 construct: range 1-653; expressed in HEK-293F; also called soluble HER2; biotinylated HER2ECDHis
# [3] = molecular target: T2, HER2ECDHis; assay: ELISA; competitor 005
# Description: (§1) Next, the ELISA wells were washed with PBST (PBS supplemented with 0.05% Tween-20 [Sigma-Aldrich, Zwijndrecht, The Netherlands]) and blocked for one hour at room temperature (RT) with PBSTC (PBST supplemented 2% [v/v] chicken serum [Gibco, Paisley, Scotland]). The ELISA wells were then washed with PBST and incubated for one hour at RT with HER2ECDHis serially diluted in PBSTC (0.25-2 μg/mL in 2-fold dilutions). […] The plate was thereafter washed with PBST and incubated for one hour with 0.1 μg/mL Streptavidin-poly-HRP (Sanquin, Amsterdam, The Netherlands) diluted in PBST. After washing, the reaction was visualized through a 15 minutes incubation with 2,2′-azino-bis (3-ethylbenzothiazoline-6-sulfonic acid) (ABTS: one ABTS tablet diluted in 50 mL ABTS buffer (Roche Diagnostics, Almere, The Netherlands)) at RT protected from light. The colorization was stopped by adding an equal volume of oxalic acid (Sigma-Aldrich, Zwijndrecht, The Netherlands). Fluorescence at 405 nm was measured on a microtiter plate reader (Biotek Instruments, Winooski, USA).
# (§2) Each HER2 antibody was coated to the ELISA wells at the sub-optimal dose that was determined as described above. After blocking of the ELISA wells, the wells were incubated with the predetermined concentration of 1 μg/mL biotinylated HER2ECDHis in the presence or absence of an excess of a second (competitor) HER2 antibody. The ELISA was then performed as described above. […] Percentage competition was then determined as 100 minus the percentage of inhibition.
# [4] = molecular target: T2, HER2ECDHis; assay: ELISA; competitor 111
# Description: as §1, §2
# [5] = molecular target: T2, HER2ECDHis; assay: ELISA; competitor 059
# Description: as §1, §2
# [6] = molecular target: T1, human epidermal growth factor receptor …; assay: cell-based or functional assay; remark: listed apart in the source
# [7] = molecular target: T2, HER2ECDHis; assay: ELISA; competitor C1
# [8] = molecular target: T2, HER2ECDHis; assay: ELISA; competitor F5
# [9] = molecular target: T1, human epidermal growth factor receptor …; assay: cell-based or functional assay; remark: listed apart in the source
# [10] = molecular target: T2, HER2ECDHis; assay: ELISA; competitor Tras
# Description: as §1, §2
# [11] = molecular target: T2, HER2ECDHis; assay: ELISA; competitor 060
# Description: as §1, §2
# [12] = molecular target: T2, HER2ECDHis; assay: ELISA; competitor 106
# Description: as §1, §2
# [13] = molecular target: T2, HER2ECDHis; assay: ELISA; competitor 006
# Description: as §1, §2
binder,measurement,setting,value
B1,"% cells killed, AU565, anti-kappa-ETA'-conjugated",[1],69.7%
same,"EC50 of cell kill, AU565, anti-kappa-ETA'-conjugated",[1],0.0151 µg/mL
same,% binding vs no competitor,[2],115%
same,% binding vs no competitor,[3],18%
same,% binding vs no competitor,[4],32%
same,% binding vs no competitor,[5],22%
same,"EC50, fab-CypHer5E internalization, AU565",[6],0.0214 µg/mL
same,"Maximal MFI, fab-CypHer5E internalization, AU565",[6],95100 MFI
same,% binding vs no competitor,[7],157%
same,% binding vs no competitor,[8],227%
same,"% cells killed, A431, anti-kappa-ETA'-conjugated",[9],88.5%
same,"EC50 of cell kill, A431, anti-kappa-ETA'-conjugated",[9],~0.0101 µg/mL
same,% binding vs no competitor,[10],126%
same,% binding vs no competitor,[11],12%
same,% binding vs no competitor,[12],54%
same,% binding vs no competitor,[13],15%
